Data taken from patent publication US10864251B2, “Peptides of syndecan-1 for inhibiting angiogenesis” (Wisconsin Alumni Research Foundation, priority 2006, dated 2020).
Read-outs that look alike come from different tables or passages of the source. Where no end group is shown, it is not given here.

B1: S1ED: recombinant mouse Sdc1 ectodomain (amino acids 18-251), expressed in bacteria as GST fusion or 6×His-tagged protein (protein)
chain: QPALPQIVAVNVPPEDQDGSGDDSDNFSGSGTGALPDTLSRQTPSTWKDVWLLTATPTAPEPTSSNTETAFTSVLPAGEKPEEGEPVLHVEAEPGFTARDKEKEVTTRPRETVQLPITQRASTVRVTTAQAAVTSHPHGGMQPGLHETSAPTAPGQPDHQPPRVEGGGTSVIKEVVEDGTANQLPAGEGSGEQDFTFETSGENTAVAAVEPGLRNQPPVDEGATGASQSLLDRK
modifications: left off: a dimerising Fc or GST
notes: recombinant mouse Sdc1 ectodomain (amino acids 18-251), expressed in bacteria as GST fusion or 6×His-tagged protein

Tested on: human dermal microvascular endothelial cells (HMEC-1)
Type: cell-based
Description: FIGS. 6A-6H—Inhibition of B82L fibroblast and HMEC-1 cell attachment and spreading on VN by synstatin82-130. B82L fibroblasts, which rely on the αvβ5 integrin for attachment to VN, and human dermal microvascular endothelial cells, which rely on both the αvβ3 and αvβ5 integrins for attachment to VN, were plated in the absence of peptide (FIGS. 6A, 6E) or in the presence of 0.1 (FIGS. 6B, 6F), 0.3 (FIGS. 6C, 6G) or 1 μM (FIGS. 6D, 6H) synstatin82-130 for 2 hr and processed as described in FIG. 2.
FIGS. 10A-10D—Dependence of HMEC cell attachment and spreading on integrin activation by Sdc1 and its inhibition by SSTN. (FIG. 10A) HMECs were plated for 2 hr either on Sdc1-specific antibody B-B4 to engage Sdc1 or on VN (10 μg/ml coating concentration) to engage the αvβ3 and αvβ5 integrins. Blocking antibodies LM609 (10 μg/ml, specific for αvβ3) and P1F6 (10 μg/ml, specific for αvβ5), SSTN (0.5 μM) or recombinant mouse Sdc1 ectodomain (mS1ED, 5 μM) were added. The ligand mimetic antibody WOW1 was used to detect activated αvβ3 integrin on cells plated on B-B4. (FIG. 10B) HMECs were treated with siRNA oligo specific for human Sdc1 for 48 hr prior to plating on VN. Sdc1 expression was quantified by flow cytometry using human Sdc1-specific mAb B-B4 or a control mouse IgG. (FIG. 10C-10D) The percentage of cell attaching or attaching and spreading was quantified for HMECs, HAEC and MAECs plated on VN for 24 hr in the presence of mS1ED or SSTN, or after siRNA silencing of Sdc1 expression in the presence of mAb LM609 to block αvβ3 integrin, P1F6 to block αvβ5 integrin, or both antibodies.
FIG. 14—Activity of SSTN peptides. A diagram of SSTN82-130 used in our experiments is shown. The gray letters designate amino acids that are identical or highly conserved across species (mouse, human, rat, hamster). Shorter peptides have been tested using HMEC-1 endothelial cells for inhibition of […] mediated cell attachment and spreading in comparison to SSTN82-130.
Cell adhesion and spreading assays were performed with modification to the previous procedures (Lebakken and Rapraeger, 1996. Briefly, human plasma vitronectin or fibronectin at 10-30 μg/ml were applied to nitrocellulose-coated ten well slides (Erie Scientific) and incubated for 1-2 h at 37° C. Slides were blocked with 1.0% heat-denatured bovine serum albumin for a minimum of 30 min at 37° C. Cells were detached from the substratum using 5 mM EDTA in Tris-buffered saline and resuspended in HEPES-buffered culture medium containing 0.1% heat-denatured BSA. Cells were plated at a density of 15,000 cells per well and allowed to attach and spread for 2 h prior to fixation in 4% paraformaldehyde in CMF-PBS. For fluorescence microscopy, fixed cells were permeabilized in 0.2% Triton X-100, labeled with rhodamine-conjugated phalloidin and analyzed using fluorescence microscopy. For testing inhibition by recombinant mScd-1ED and synstatin82-130, cells were pre-incubated 10 min before plating in the presence of the inhibitor. […] LM609 was used as a specific block to αvβ3 and P1F6 was used as a specific blocker of αvβ5.
Finally, the inventors have examined HMEC-1 cells, which are immortalized human dermal microvascular endothelial cells. Microvascular endothelial cells are regarded as being the main source of endothelial cells that carry out angiogenesis in vivo. The HMEC-1 cells grown in serum-containing culture medium express Sdc1 (as noted earlier) and also express active αvβ3 and αvβ5 integrins. […]

Molecule | IC50 (6 h) [nM] | IC50 (HMEC-1, αvβ3 and αvβ5 integrin-dependent, read-out: IC50, spreading on VN) [nM] | reduction of cell spreading (HMECs on vitronectin, 1-3 μM) | spreading on vitronectin (HMECs, 5.0 μM)
SNTETAFTSVLPAGEKPEEGEPVLHVEAEPGFTARDKEKEVTTRPRETV [synstatin82-130] | ~100 |  |  | 
B1 |  | 3000 to 10000 | 80-90% | blocks spreading as effectively as the combined antibody treatment
